Patent US20030119725A1 (ACTIVE MOTIF, published 2003)
*1 amine or outer side, *2 acyl side, *3 side chain or, on linkers, in order; H or OH if unused. Cysteamide = C(CS[*:3])N[*:1]

B1: Pep-2 (KETWWETWWTEWSQPKKKRKV-cya) (peptide)
peptide: Ac-KETWWETWWTEWSQPKKKRKV-Cysteamide
notes: Synthetic 21-residue peptide: Trp-rich hydrophobic domain, Ser-Gln-Pro spacer, and a Lys-rich domain derived from the SV40 large T antigen NLS; also called Pep-2-cya; peptide vector

How the values were obtained:
[1] = biological target: the molecule itself; assay: intrinsic tryptophan fluorescence against peptide concentration
[2] = biological target: T1, 119 kDa b-galactosidase (β-gal) (UniProt P00722 2-1024 = β-galactosidase); assay: intrinsic Trp fluorescence of Pep-2 on binding
T1 construct: also called beta-gal; β-galactosidase

[3] = biological target: T2, Pep-A, 32-mer peptide derived from HIV-1 reverse transcriptase; assay: intrinsic Trp fluorescence of Pep-2 on binding
T2 construct: also called peptide A

[4] = biological target: T3, Pep-B, 51-mer peptide derived from human Cdc25C dual-specificity phosphatase; assay: intrinsic Trp fluorescence of Pep-2 on binding
T3 construct: also called peptide B

[5] = biological target: T1, 119 kDa b-galactosidase (β-gal); assay: intrinsic Trp fluorescence titration of 1 µM Pep-2
[6] = biological target: T2, Pep-A, 32-mer peptide derived from …; assay: intrinsic Trp fluorescence titration of 1 µM Pep-2
[7] = biological target: T3, Pep-B, 51-mer peptide derived from …; assay: intrinsic Trp fluorescence titration of 1 µM Pep-2

T1 sequence (P00722 2-1024 limits assumed): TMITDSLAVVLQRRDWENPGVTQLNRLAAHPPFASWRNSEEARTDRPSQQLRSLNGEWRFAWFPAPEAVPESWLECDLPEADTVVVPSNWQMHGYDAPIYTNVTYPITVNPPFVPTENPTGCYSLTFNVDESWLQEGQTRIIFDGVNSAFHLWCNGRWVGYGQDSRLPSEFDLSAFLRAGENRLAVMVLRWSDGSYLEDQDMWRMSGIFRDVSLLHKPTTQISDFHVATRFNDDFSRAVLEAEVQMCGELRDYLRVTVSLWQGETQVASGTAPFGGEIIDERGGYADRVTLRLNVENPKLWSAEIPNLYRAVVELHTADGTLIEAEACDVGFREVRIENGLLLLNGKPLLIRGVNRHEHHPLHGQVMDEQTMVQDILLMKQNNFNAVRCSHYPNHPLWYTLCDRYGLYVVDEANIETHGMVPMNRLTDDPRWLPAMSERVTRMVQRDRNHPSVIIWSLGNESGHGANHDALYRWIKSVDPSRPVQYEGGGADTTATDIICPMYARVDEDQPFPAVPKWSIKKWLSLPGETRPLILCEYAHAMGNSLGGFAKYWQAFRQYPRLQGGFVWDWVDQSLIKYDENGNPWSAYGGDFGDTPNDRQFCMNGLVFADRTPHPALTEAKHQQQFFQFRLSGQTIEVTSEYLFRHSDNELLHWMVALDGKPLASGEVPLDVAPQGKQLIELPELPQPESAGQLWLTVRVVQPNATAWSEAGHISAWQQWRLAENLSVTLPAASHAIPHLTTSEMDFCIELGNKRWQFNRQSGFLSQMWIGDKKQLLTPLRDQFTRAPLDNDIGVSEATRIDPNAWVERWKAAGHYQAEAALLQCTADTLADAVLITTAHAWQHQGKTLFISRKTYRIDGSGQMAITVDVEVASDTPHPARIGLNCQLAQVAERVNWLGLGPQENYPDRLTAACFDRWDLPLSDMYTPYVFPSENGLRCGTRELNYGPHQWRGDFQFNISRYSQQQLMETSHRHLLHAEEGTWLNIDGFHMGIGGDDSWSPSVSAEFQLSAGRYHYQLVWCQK

Binder	binding result [1]	blue shift of the fluorescence emission maximum [2] [nm]	blue shift of the fluorescence emission maximum [3] [nm]	blue shift of the fluorescence emission maximum [4] [nm]	Kd [5] [nM]	concentration of partner at saturation [5] [nM]	saturating quenching of intrinsic tryptophan fluorescence [5] [%]	Kd [6] [nM]	concentration of partner at saturation [6] [nM]	saturating quenching of intrinsic tryptophan fluorescence [6] [%]	Kd [7] [nM]	concentration of partner at saturation [7] [nM]	saturating quenching of intrinsic tryptophan fluorescence [7] [%]
GALFLGFLGAAGSTMGAWSQPKSKRKV [MPG peptide vector]	no binding	–	–	–	–	–	–	–	–	–	–	–	–
B1	no binding (tested: up to a millimolar concentration)	10	10	10	~120	~50	65	~120	~200	36	~120	~200	36
